Here are results for one sequence from PMC10891604.

The target of the series is T1, Lmo1172 (UniProt Q92CN5).
T1 sequence: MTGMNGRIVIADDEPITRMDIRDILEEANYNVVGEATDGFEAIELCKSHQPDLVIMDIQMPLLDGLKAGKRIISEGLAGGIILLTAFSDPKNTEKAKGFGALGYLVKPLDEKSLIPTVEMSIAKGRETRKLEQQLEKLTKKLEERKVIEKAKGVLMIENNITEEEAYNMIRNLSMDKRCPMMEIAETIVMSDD
The series can be described thus: EMSA. As to conditions: EMSA: 200 ng DNA in Beyotime binding buffer, 6% non-denaturing PAGE, ethidium bromide staining; salt, pH and temperature not stated.

“CTAATTCACCTCCACTAATATTTTACAACGAATTTACCCATAATAACCAAAAATGTAATGAAATGTCCGATTCTTGTCATGAACGACCAAAAAAGAGCAGAATTGCCGATTTTTTGGATACATTTCAGAATATTCGAACGTGTAAAAAGGACTGTATAATAGGCTTAAAAACCCATATTAATATTTTATTTAAGTGAGTTTATTCATAAAAAAAACCAACTGCAAAAGAATGTTCACAGTTGGCTTTTCCATTTTA (double strand) [P2 promoter DNA]”: the binding result is on record as “no binding”.
